{"source": "paper PMC3167755", "target": "T1, Fur-His6 (CjFur-His6) (Campylobacter jejuni 81-176) (UniProt P0C631)", "T1 sequence": "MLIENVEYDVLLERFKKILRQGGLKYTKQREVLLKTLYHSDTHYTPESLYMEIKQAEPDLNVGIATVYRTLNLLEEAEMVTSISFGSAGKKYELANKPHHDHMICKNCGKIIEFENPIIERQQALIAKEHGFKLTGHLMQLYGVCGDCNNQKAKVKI", "assay": "EMSA", "settings": "10 mM Tris-HCl pH 7.5, 1 mM MgCl2, 0.5 mM DTT, 50 mM KCl, 100 uM MnCl2 (omitted where stated), 1 ug poly(dI-dC), 50 ug BSA, 5% glycerol, 20 ul, ~28 fmol DNA …"}
{"sequence": "GCTAATGCAAAACTTGAATAAAATACAAGAGCTAAAACAAATTTGCAAAAAAATTTACGCATATTATATCCTTGGTTAAATAAAATTTTCAAAGATAATTTTATTTAAAAAAATAAATAAGCCCAAATTTATTTTTGGGCTTATTGTTATTTTTTAGGATTGAATGCTTGATCAACACTAAAAGGCATTGCTTGATAACCCGTGCCTGAACCGCTAAATTGAATTTGAACCGAAGGCTCCTTAGCACCCCAGTTAAATTCATCAATTTCAGGTTTTGGCTCTCCAAGACTTACACCT (double strand) [dsbA1 promoter region]", "values": [{"measurement": "binding", "value": "no binding"}]}
